From article PMC3201880 (Nucleic Acids Research, 2011)
Like-named read-outs stand apart in the source and are kept apart here.

Key:
[1] = molecular target: T1, TnpA-His6 (IS608 transposase) (Helicobacter pylori (IS608), UniProt Q933Z0 1-155); assay: EMSA
T1 sequence: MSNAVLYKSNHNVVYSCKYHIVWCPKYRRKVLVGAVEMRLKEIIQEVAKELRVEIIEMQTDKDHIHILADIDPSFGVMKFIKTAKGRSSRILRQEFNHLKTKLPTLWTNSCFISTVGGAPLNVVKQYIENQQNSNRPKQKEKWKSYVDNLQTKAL

cross-linking = molecular target: the molecule itself; assay: cross-linking
[2] = molecular target: T1, TnpA-His6 (IS608 transposase); assay: EMSA; remark: listed apart in the source
[3] = molecular target: T1, TnpA-His6 (IS608 transposase); assay: EMSA; remark: listed apart in the source

GAATCCCCTAGCTTTAGCTATGGGGAGTATGTCAACAAATTTGCC (ssDNA) [RE45]
binding result [1]: binds

B1: TnpA-His6 (transposase of IS608) (enzyme, Helicobacter pylori, UniProt Q933Z0 1-155, looked up)
chain: MSNAVLYKSNHNVVYSCKYHIVWCPKYRRKVLVGAVEMRLKEIIQEVAKELRVEIIEMQTDKDHIHILADIDPSFGVMKFIKTAKGRSSRILRQEFNHLKTKLPTLWTNSCFISTVGGAPLNVVKQYIENQQNSNRPKQKEKWKSYVDNLQTKAL
stoichiometry N (cross-linking): 2

GCTTTAGCTAGAATCCCCTAGCTTTAGCTATGGGGAGTATGTCAATTCG (ssDNA) [RE49]
binding result [2]: binds

B2: LE80 (ssDNA)
DNA: CGCTAGTGCAAAAATTACCAAAACTAACGCCTTAAAGCCCCTAGCTTTTAGCTATGGGGATACAAGGCGAAACGCCTTTA
binding result [3]: binds

GCTTTAGCTAGAATCCCCTAGCTTTAGCTATGGGGAGTATGTCAA (ssDNA) [RE45_pc (precleaved)]
binding result [1]: binds

B3: RE70 (ssDNA)
DNA: TTCCTCATGCTTTAGCTAGAATCCCCTAGCTTTAGCTATGGGGAGTATGTCAACAAATTTGCCTAATGAC
binding result [3]: binds

B4: RE56 (ssDNA)
DNA: CTCATGCTTTAGCTAGAATCCCCTAGCTTTAGCTATGGGGAGTATGTCAACAAATT
binding result [1]: binds
